Laboratory results taken from patent US11833164B2, “Methods of treating Fabry disease in patients having a mutation in the GLA gene” (Amicus Therapeutics, Inc., priority 2019, dated 2023).

Tested on: mutant form of α-Gal A expressed in HEK-293 cells
Assay: HEK assay (GLP HEK / Migalastat Amenability Assay): α-Gal A activity in lysates of transiently transfected HEK-293 cells incubated with or without 10 μM migalastat
Format: cell-based, human
Details: for Absolute increase (% WT) / Relative increase: 10 μM migalastat versus baseline; for Baseline α-Gal A activity (% WT): absence of migalastat; for Baseline α-Gal A activity (% WT) / 10 μM migalastat α-Gal A activity (% WT): percentage of baseline wild-type α-Gal A activity; for Baseline α-Gal A activity (% WT) / Baseline α-Gal A activity / 10 μM migalastat α-Gal A activity / 10 μM migalastat α-Gal A activity (% WT): mean ± SEM; for Baseline α-Gal A activity / 10 μM migalastat α-Gal A activity: lysates of HEK-293 cells transiently transfected with the mutant form; for Baseline α-Gal A activity: incubated 5 days in absence of migalastat; for 10 μM migalastat α-Gal A activity: incubated 5 days with 10 μM migalastat; for 10 μM migalastat α-Gal A activity (% WT): with 10 μM migalastat, 5 days
Summary of the method: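 Activity reported as 4-MU released (nmol/mg/hr), mean±SEM, from lysates of transiently transfected HEK-293 cells expressing mutant α-Gal A, cultured with or without 10 μM migalastat.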

Molecule	Absolute increase (% WT)	Relative increase	Baseline α-Gal A activity (% WT)	Baseline α-Gal A activity	10 μM migalastat α-Gal A activity	10 μM migalastat α-Gal A activity (% WT)
T366S (protein) MQLRNPELHLGCALALRFLALVSWDIPGARALDNGLARTPTMGWLHWERFMCNLDCQEEPDSCISEKLFMEMAELMVSEGWKDAGYEYLCIDDCWMAPQRDSEGRLQADPQRFPHGIRQLANYVHSKGLKLGIYADVGNKTCAGFPGSFGYYDIDAQTFADWGVDLLKFDGCYCDSLENLADGYKHMSLALNRTGRSIVYSCEWPLYMWPFQKPNYTEIRQYCNHWRNFADIDDSWKSIKSILDWTSFNQERIVDVAGPGGWNDPDMLVIGNFGLSWNQQVTQMALWAIMAAPLFMSNDLRHISPQAKALLQDKDVIAINQDPLGKQGYQLRQGDNFEVWERPLSGLAWAVAMINRQEIGGPRSYSIAVASLGKGVACNPACFITQLLPVKRKLGFYEWTSRLRSHINPTGTVLLQLENTMQMSLKDLL	16.2 % WT	1.2	70.6 ± 4.9 % WT	20731 ± 2170 nmol/mg/h	24885 ± 1760 nmol/mg/h	86.7 ± 3.6 % WT
I367L (protein) MQLRNPELHLGCALALRFLALVSWDIPGARALDNGLARTPTMGWLHWERFMCNLDCQEEPDSCISEKLFMEMAELMVSEGWKDAGYEYLCIDDCWMAPQRDSEGRLQADPQRFPHGIRQLANYVHSKGLKLGIYADVGNKTCAGFPGSFGYYDIDAQTFADWGVDLLKFDGCYCDSLENLADGYKHMSLALNRTGRSIVYSCEWPLYMWPFQKPNYTEIRQYCNHWRNFADIDDSWKSIKSILDWTSFNQERIVDVAGPGGWNDPDMLVIGNFGLSWNQQVTQMALWAIMAAPLFMSNDLRHISPQAKALLQDKDVIAINQDPLGKQGYQLRQGDNFEVWERPLSGLAWAVAMINRQEIGGPRSYTLAVASLGKGVACNPACFITQLLPVKRKLGFYEWTSRLRSHINPTGTVLLQLENTMQMSLKDLL	21.9 % WT	1.2	79 ± 4 % WT	25211 ± 1640 nmol/mg/h	31257 ± 2256 nmol/mg/h	101 ± 9.3 % WT
V369G (protein) MQLRNPELHLGCALALRFLALVSWDIPGARALDNGLARTPTMGWLHWERFMCNLDCQEEPDSCISEKLFMEMAELMVSEGWKDAGYEYLCIDDCWMAPQRDSEGRLQADPQRFPHGIRQLANYVHSKGLKLGIYADVGNKTCAGFPGSFGYYDIDAQTFADWGVDLLKFDGCYCDSLENLADGYKHMSLALNRTGRSIVYSCEWPLYMWPFQKPNYTEIRQYCNHWRNFADIDDSWKSIKSILDWTSFNQERIVDVAGPGGWNDPDMLVIGNFGLSWNQQVTQMALWAIMAAPLFMSNDLRHISPQAKALLQDKDVIAINQDPLGKQGYQLRQGDNFEVWERPLSGLAWAVAMINRQEIGGPRSYTIAGASLGKGVACNPACFITQLLPVKRKLGFYEWTSRLRSHINPTGTVLLQLENTMQMSLKDLL	5.5 % WT	3.3	2.6 ± 0.2 % WT	803 ± 59 nmol/mg/h	2628 ± 291 nmol/mg/h	8.1 ± 0.7 % WT
A368G (protein) MQLRNPELHLGCALALRFLALVSWDIPGARALDNGLARTPTMGWLHWERFMCNLDCQEEPDSCISEKLFMEMAELMVSEGWKDAGYEYLCIDDCWMAPQRDSEGRLQADPQRFPHGIRQLANYVHSKGLKLGIYADVGNKTCAGFPGSFGYYDIDAQTFADWGVDLLKFDGCYCDSLENLADGYKHMSLALNRTGRSIVYSCEWPLYMWPFQKPNYTEIRQYCNHWRNFADIDDSWKSIKSILDWTSFNQERIVDVAGPGGWNDPDMLVIGNFGLSWNQQVTQMALWAIMAAPLFMSNDLRHISPQAKALLQDKDVIAINQDPLGKQGYQLRQGDNFEVWERPLSGLAWAVAMINRQEIGGPRSYTIGVASLGKGVACNPACFITQLLPVKRKLGFYEWTSRLRSHINPTGTVLLQLENTMQMSLKDLL	30.9 % WT	1.3	83.9 ± 4.7 % WT	31616 ± 2552 nmol/mg/h	42198 ± 2923 nmol/mg/h	114.8 ± 7.8 % WT
I367M (protein) MQLRNPELHLGCALALRFLALVSWDIPGARALDNGLARTPTMGWLHWERFMCNLDCQEEPDSCISEKLFMEMAELMVSEGWKDAGYEYLCIDDCWMAPQRDSEGRLQADPQRFPHGIRQLANYVHSKGLKLGIYADVGNKTCAGFPGSFGYYDIDAQTFADWGVDLLKFDGCYCDSLENLADGYKHMSLALNRTGRSIVYSCEWPLYMWPFQKPNYTEIRQYCNHWRNFADIDDSWKSIKSILDWTSFNQERIVDVAGPGGWNDPDMLVIGNFGLSWNQQVTQMALWAIMAAPLFMSNDLRHISPQAKALLQDKDVIAINQDPLGKQGYQLRQGDNFEVWERPLSGLAWAVAMINRQEIGGPRSYTMAVASLGKGVACNPACFITQLLPVKRKLGFYEWTSRLRSHINPTGTVLLQLENTMQMSLKDLL	22.3 % WT	1.3	76.7 ± 3.9 % WT	28430 ± 1769 nmol/mg/h	36008 ± 2249 nmol/mg/h	99 ± 6.7 % WT
I367F (protein) MQLRNPELHLGCALALRFLALVSWDIPGARALDNGLARTPTMGWLHWERFMCNLDCQEEPDSCISEKLFMEMAELMVSEGWKDAGYEYLCIDDCWMAPQRDSEGRLQADPQRFPHGIRQLANYVHSKGLKLGIYADVGNKTCAGFPGSFGYYDIDAQTFADWGVDLLKFDGCYCDSLENLADGYKHMSLALNRTGRSIVYSCEWPLYMWPFQKPNYTEIRQYCNHWRNFADIDDSWKSIKSILDWTSFNQERIVDVAGPGGWNDPDMLVIGNFGLSWNQQVTQMALWAIMAAPLFMSNDLRHISPQAKALLQDKDVIAINQDPLGKQGYQLRQGDNFEVWERPLSGLAWAVAMINRQEIGGPRSYTFAVASLGKGVACNPACFITQLLPVKRKLGFYEWTSRLRSHINPTGTVLLQLENTMQMSLKDLL	21.6 % WT	1.4	48.3 ± 3.7 % WT	15728 ± 1680 nmol/mg/h	22178 ± 1794 nmol/mg/h	69.9 ± 5.7 % WT
V369F (protein) MQLRNPELHLGCALALRFLALVSWDIPGARALDNGLARTPTMGWLHWERFMCNLDCQEEPDSCISEKLFMEMAELMVSEGWKDAGYEYLCIDDCWMAPQRDSEGRLQADPQRFPHGIRQLANYVHSKGLKLGIYADVGNKTCAGFPGSFGYYDIDAQTFADWGVDLLKFDGCYCDSLENLADGYKHMSLALNRTGRSIVYSCEWPLYMWPFQKPNYTEIRQYCNHWRNFADIDDSWKSIKSILDWTSFNQERIVDVAGPGGWNDPDMLVIGNFGLSWNQQVTQMALWAIMAAPLFMSNDLRHISPQAKALLQDKDVIAINQDPLGKQGYQLRQGDNFEVWERPLSGLAWAVAMINRQEIGGPRSYTIAFASLGKGVACNPACFITQLLPVKRKLGFYEWTSRLRSHINPTGTVLLQLENTMQMSLKDLL	19.6 % WT	1.5	37.7 ± 2.8 % WT	11912 ± 1197 nmol/mg/h	18282 ± 1960 nmol/mg/h	57.3 ± 4.8 % WT
V369A (protein) MQLRNPELHLGCALALRFLALVSWDIPGARALDNGLARTPTMGWLHWERFMCNLDCQEEPDSCISEKLFMEMAELMVSEGWKDAGYEYLCIDDCWMAPQRDSEGRLQADPQRFPHGIRQLANYVHSKGLKLGIYADVGNKTCAGFPGSFGYYDIDAQTFADWGVDLLKFDGCYCDSLENLADGYKHMSLALNRTGRSIVYSCEWPLYMWPFQKPNYTEIRQYCNHWRNFADIDDSWKSIKSILDWTSFNQERIVDVAGPGGWNDPDMLVIGNFGLSWNQQVTQMALWAIMAAPLFMSNDLRHISPQAKALLQDKDVIAINQDPLGKQGYQLRQGDNFEVWERPLSGLAWAVAMINRQEIGGPRSYTIAAASLGKGVACNPACFITQLLPVKRKLGFYEWTSRLRSHINPTGTVLLQLENTMQMSLKDLL	38.6 % WT	1.5	77.6 ± 5 % WT	23968 ± 1797 nmol/mg/h	35925 ± 2462 nmol/mg/h	116.2 ± 6.3 % WT
A368P (protein) MQLRNPELHLGCALALRFLALVSWDIPGARALDNGLARTPTMGWLHWERFMCNLDCQEEPDSCISEKLFMEMAELMVSEGWKDAGYEYLCIDDCWMAPQRDSEGRLQADPQRFPHGIRQLANYVHSKGLKLGIYADVGNKTCAGFPGSFGYYDIDAQTFADWGVDLLKFDGCYCDSLENLADGYKHMSLALNRTGRSIVYSCEWPLYMWPFQKPNYTEIRQYCNHWRNFADIDDSWKSIKSILDWTSFNQERIVDVAGPGGWNDPDMLVIGNFGLSWNQQVTQMALWAIMAAPLFMSNDLRHISPQAKALLQDKDVIAINQDPLGKQGYQLRQGDNFEVWERPLSGLAWAVAMINRQEIGGPRSYTIPVASLGKGVACNPACFITQLLPVKRKLGFYEWTSRLRSHINPTGTVLLQLENTMQMSLKDLL	25.7 % WT	1.3	91.7 ± 4.6 % WT	26402 ± 926 nmol/mg/h	33525 ± 1803 nmol/mg/h	117.4 ± 8.7 % WT
